# From patent US20110250207A1 (OREGON HEALTH AND SCIENCE UNIVERSITY, published 2011)
# B1: monoclonal antibody 14E11 (antibody, V domains shown)
# VH: QVQLEESGPGLVAPSQSLSITCTVSGFSLTGYGIYWVRQPPGKGLEWLGMIWGDGRTDYNSALKSRLSISKDNSKSQVFLKMNSLQTDDTARYYCARDYYGSKDYWGQGTTLTVSS
# VL: DIVMTQSHKFMSTSVGDRVSITCKASQDVSTAVAWYQQKPGQSPKLLIYLTSYRNTGVPDRFTGSGSGTDFTFTISSVQAEDLAVYYCQQHYKTPYSFGGGTKLERLR
# notes: also called anti-murine fXI IgG 14E11; anti-fXI IgG 14E11
# B2: activated factor XII (protein)
# chain: IPPWEAPKEHKYKAEEHTVVLTVTGEPCHFPFQYHRQLYHKCTHKGRPGPQPWCATTPNFDQDQRWGYCLEPKKVKDHCSKHSPCQKGGTCVNMPSGPHCLCPQHLTGNHCQKEKCFEPQLLRFFHKNEIWYRTEQAAVARCQCKGPDAHCQRLASQACRTNPCLHGGRCLEVEGHRLCHCPVGYTGAFCDVDTKASCYDGRGLSYRGLARTTLSGAPCQPWASEATYRNVTAEQARNWGLGGHAFCRNPDNDIRPWCFVLNRDRLSWEYCDLAQCQTPTQAAPPTPVSPRLHVPLMPAQPAPPKPQPTTRTPPQSQTPGALPAKREQPPSLTRNGPLSCGQRLRKSLSSMTRVVGGLVALRGAHPYIAALYWGHSFCAGSLIAPCWVLTAAHCLQDRPAPEDLTVVLGQERRNHSCEPCQTLAVRSYRLHEAFSPVSYQHDLALLRLQEDADGSCALLSPYVQPVCLPSGAARPSETTLCQVAGWGHQFEGAEEYASFLQEAQVPFLSLERCSAPDVHGSSILPGMLCAGFLEGGTDACQGDSGGPLVCEDQAAERRLTLQGIISWGSGCGDRNKPGVYTDVAYYLAWIREHTVS
# Columns and labels:
# murine factor XI = target: T1, murine factor XI (murine, UniProt Q91Y47 19-624); assay: immunoblot of recombinant proteins with 14E11 (FIG. 10A)
# T1 construct: also called murine fXI (M); recombinant murine fXI
# cow fXI = target: T2, cow fXI (cattle, UniProt Q5NTB3 19-625); assay: immunoprecipitation from plasma with 14E11 beads, western blot with biotinylated 14E11
# T2 construct: mature; Endogenous protein immunoprecipitated from plasma; also called cattle fXI
# Protocol: Plasma was obtained from human, cattle, horse, pig, rabbit, raccoon, tiger, baboon, cat, chicken, dog African elephant and llama subjects, and serum was obtained from anteater. Plasma from a fXI-deficient human subject was used as a negative control. Plasma or serum (500 μl) was collected into sodium citrate and mixed with 500 μl Tris-HCl. […] The beads were washed once with 1 ml Tris-HCl, then eluted with 50 μl of non-reducing SDS-sample buffer.
# [1] = target: fXI with Lys^83 and Gln^84 replaced with alanine, P03951
Binder,binding result (murine factor XI),binding result (cow fXI),rate of activation in solution relative to fXI^WT [1],specific activity in a contact activation initiated clotting assay relative to fXI^WT [1]
B1,binds,binds,,
B2,,,about 65% of the rate of fXI^WT,100-150% of the specific activity of fXI^WT
